Tests used:
[1] = molecular target: T1, human TSLP recombinant protein (human, UniProt Q969D9 29-159, biotinylated in the blocking and cell-binding assays (sites not given)); test: ELISA on coated human TSLP;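 note: binding detected by TMB colour development for 10 min at 37 °C, then absorbance measured at 450 nm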
T1 construct: also called biotinylated human TSLP protein

[2] = molecular target: T2, Cynomolgus macaques TSLP recombinant protein (Cynomolgus macaques, UniProt Q969D9 29-159 (human entry), limits assumed, biotinylated in the blocking assays (sites not given)); test: ELISA on coated cynomolgus TSLP;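 note: Read-out was TMB colorimetric signal measured as absorbance at 450 nm after 10 min development at 37 °C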
T2 construct: also called cyTSLP; biotinylated Cynomolgus macaques TSLP protein
T2 chain: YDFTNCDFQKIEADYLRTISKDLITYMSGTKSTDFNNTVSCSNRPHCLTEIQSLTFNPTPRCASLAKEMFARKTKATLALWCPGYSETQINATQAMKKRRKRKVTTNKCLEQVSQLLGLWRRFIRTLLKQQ

[3] = molecular target: T1, human TSLP recombinant protein; test: competition ELISA, biotin-human TSLP to coated human TSLPR-Fc
Description: Human TSLPR recombinant protein was coated onto a 96-well microtiter plate at 1 μg/mL in carbonate buffer overnight at 4° C. The plate was washed three times with PBS and blocked by adding 200 μL/well of PBS containing 2% skim milk for 1 hour. […] The 96-well plate was washed three times with PBS, and 100 μL of the incubated mixture was added to each well and incubated for 1 hour at room temperature. After washing with PBST and PBS three times, respectively, 100 μL of SA-HRP was added to each well and incubated at room temperature for 30 minutes in the dark. After washing with PBST and PBS three times, respectively, 100 μL of TMB substrate was added to well for color development at 37° C. for 10 minutes, the reaction was terminated with 50 μL of 2M sulfuric acid solution per well, and the absorbance was read at a wavelength of 450 nm.

[4] = molecular target: T2, Cynomolgus macaques TSLP recombinant …; test: competition ELISA, biotin-cynomolgus TSLP to coated cynomolgus TSLPR-Fc
Description: Cynomolgus macaques TSLPR recombinant protein was coated onto a 96-well microtiter plate at 1 g/mL in carbonate buffer overnight at 4° C. The plate was washed three times with PBS and blocked by adding 200 μL/well of PBS containing 2% skim milk for 1 hour. […] The 96-well plate was washed three times with PBS, and 100 μL of the incubated mixture was added to each well and incubated for 1 hour at room temperature. After washing with PBST and PBS three times, respectively, 100 μL of SA-HRP was added to each well and incubated at room temperature for 30 minutes in the dark. After washing with PBST and PBS three times, respectively, 100 μL of TMB substrate was added to well for color development at 37° C. for 10 minutes, the reaction was terminated with 50 μL of 2M sulfuric acid solution per well, and the absorbance was read at a wavelength of 450 nm.

[5] = molecular target: T1, human TSLP recombinant protein; test: flow cytometry competition, biotin-human TSLP to Ba/F3-hTSLPR-IL7Rα cells
Description: Ba/F3-hTSLPR-IL7Rα cells were washed three times with PBS, centrifuged at 300 g for 3 minutes, and blocked with 3% BSA/PBS for 30 minutes. The cells were resuspended and added to a 96-well U-plate at 5×10⁴/well.

B1: Ab6 (antibody, V domains shown)
VH: QVQLVQSGAEVKKPGSSVKVSCKASGYTFTDYWMHWVRQAPGQGLEWMGTIDNSDSDTSLNQKFQGRVTLTVDTSTSTAYMELSSLRSEDTAVYYCARSLDGYYDYWGQGTLVTVSS
VL: DIQMTQSPSSLSASVGDRVTITCRASENIYSYLAWYQQKPGKAPKLLIYNARTLPEGVPSRFSGSGSGTDFTLTISSLQPEDFATYYCQHHYTTPWTFGQGTKVEIK
notes: Humanized; also called h39G5VHv6/h39G5VKv1
B1 was tested, and the EC50 [1] was 2.79 nM and the binding result [2] was “binds”.

B2: Ab1 (antibody, V domains shown)
VH: QVQLVQSGAEVKKPGSSVKVSCKASGYSFISYWIHWVRQAPGQGLEWMGIIDPSDSDTSLNQKFQGRVTLTVDKSSTTAYMELSSLRSEDTAVYYCARSLDGYYDYWGQGTLVTVSS
VL: DIQMTQSPSSLSASVGDRVTITCRASENIYSYLAWYQQKPGKAPKLLIYNARTLPEGVPSRFSGSGSGTDFTLTISSLQPEDFATYYCQHHYTTPWTFGQGTKVEIK
notes: Humanized; also called h39G5VHv1/h39G5VKv1
Binder B2 has an EC50 [1] of 0.19 nM, an EC50 [2] of 2.29 nM and an IC50 [3] of 1.7 nM. It also gave an IC50 [4] of 1.78 nM.

B3: Ab2 (antibody, V domains shown)
VH: QVQLVQSGAEVKKPGSSVKVSCKASGYSFISYWIHWVRQAPGQGLEWMGIIDPSDSDTSLNQKFQGRVTITADESTSTAYMELSSLRSEDTAVYYCARSLDGYYDYWGQGTLVTVSS
VL: DIQMTQSPSSLSASVGDRVTITCRASENIYSYLAWYQQKPGKAPKLLIYNARTLPEGVPSRFSGSGSGTDFTLTISSLQPEDFATYYCQHHYTTPWTFGQGTKVEIK
notes: Humanized; also called h39G5VHv2/h39G5VKv1
For B3, the EC50 [1] was 0.21 nM, the EC50 [2] was 2.53 nM and the IC50 [3] was 1.49 nM. It also gave an IC50 [4] of 1.1 nM.

B4: Ab5 (antibody, V domains shown)
VH: QVQLVQSGAEVKKPGSSVKVSCKASGYTFTDYWMHWVRQAPGQGLEWMGIIDPSDSDTSLNQKFQGRVTLTVDTSTSTAYMELSSLRSEDTAVYYCARSLDGYYDYWGQGTLVTVSS
VL: DIQMTQSPSSLSASVGDRVTITCRASENIYSYLAWYQQKPGKAPKLLIYNARTLPEGVPSRFSGSGSGTDFTLTISSLQPEDFATYYCQHHYTTPWTFGQGTKVEIK
notes: Humanized; also called h39G5VHv5/h39G5VKv1
Work on B4 yielded an EC50 [1] of 0.26 nM, an EC50 [2] of 2.85 nM and an IC50 [3] of 1.69 nM. The IC50 [4] was 0.28 nM.

B5: Ab7 (antibody, V domains shown)
VH: QVQLVQSGAEVKKPGSSVKVSCKASGYTFTDYWMHWVRQAPGQGLEWMGTIDNSDSDTSLNQKFQGRVTLTVDESSSTAYMELSSLRSEDTAVYYCARSLDGYYDYWGQGTLVTVSS
VL: DIQMTQSPSSLSASVGDRVTITCRASENIYSYLAWYQQKPGKAPKLLIYNARTLPEGVPSRFSGSGSGTDFTLTISSLQPEDFATYYCQHHYTTPWTFGQGTKVEIK
notes: Humanized; also called h39G5VHv7/h39G5VKv1
With B5 the EC50 [1] was 1.89 nM and the binding result [2] was “binds”.

B6: Ab10 (antibody, V domains shown)
VH: QVQLVQSGAEVKKPGSSVKVSCKASGYTFTDYWMHWVRQAPGQGLEWMGIIDPSDSDTSLNQKFQGRVTITADTSTSTAYMELSSLRSEDTAVYYCARSLDGYYDYWGQGTLVTVSS
VL: DIQMTQSPSSLSASVGDRVTITCRASENIYSYLAWYQQKPGKAPKLLIYNARTLPEGVPSRFSGSGSGTDFTLTISSLQPEDFATYYCQHHYTTPWTFGQGTKVEIK
notes: Humanized; also called h39G5VHv10/h39G5VKv1
B6 gave an EC50 [1] of 0.32 nM, an EC50 [2] of 2.24 nM and an IC50 [3] of 1.36 nM. The IC50 [4] was 0.37 nM.

B7: Ab11 (antibody, V domains shown)
VH: QVQLVQSGAEVKKPGSSVKVSCKASGYTFTDYWMHWVRQAPGQGLEWMGTIDNSDSDTSLNQKFQGRVTITADTSTSTAYMELSSLRSEDTAVYYCARSLDGYYDYWGQGTLVTVSS
VL: DIQMTQSPSSLSASVGDRVTITCRASENIYSYLAWYQQKPGKAPKLLIYNARTLPEGVPSRFSGSGSGTDFTLTISSLQPEDFATYYCQHHYTTPWTFGQGTKVEIK
notes: Humanized; also called h39G5VHv11/h39G5VKv1
With B7 the EC50 [1] was 36 nM and the binding result [2] was “binds”.

B8: Ab17 (antibody, V domains shown)
VH: QVQLVQSGAEVKKPGSSVKVSCKASGYTFTDYWMHWVRQAPGQGLEWMGTIDNSDSDTTYNQKFQGRVTLTVDTSTSTAYMELSSLRSEDTAVYYCARSVDGYLDYWGQGTLVTVSS
VL: DIQMTQSPSSLSASVGDRVTITCRASENIYSYLAWYQQKPGKAPKLLIYNARTLPEGVPSRFSGSGSGTDFTLTISSLQPEDFATYYCQHHYTTPWTFGQGTKVEIK
notes: Humanized; also called h71G4VHv2/h39G5VKv1
B8 was tested, and the EC50 [1] was 1.98 nM and the EC50 [2] was 4.44 nM.

B9: Ab18 (antibody, V domains shown)
VH: QVQLVQSGAEVKKPGSSVKVSCKASGYTFTDYWMHWVRQAPGQGLEWMGTIDNSDSDTTYNQKFQGRVTMTRDTSTSTVYMELSSLRSEDTAVYYCARSVDGYLDYWGQGTLVTVSS
VL: DIQMTQSPSSLSASVGDRVTITCRASENIYSYLAWYQQKPGKAPKLLIYNARTLPEGVPSRFSGSGSGTDFTLTISSLQPEDFATYYCQHHYTTPWTFGQGTKVEIK
notes: Humanized; also called h71G4VHv3/h39G5VKv1
B9 showed an EC50 [1] of 2.15 nM and an EC50 [2] of 17.9 nM.

B10: Ab25 (antibody, V domains shown)
VH: QVQLVQSGAEVKKPGSSVKVSCKASGYTFTDYWMHWVRQAPGQGLEWMGTIDNSDSDTSLNQKFQGRVTLTVDTSTSTAYMELSSLRSEDTAVYYCARSLDGYYDYWGQGTLVTVSS
VL: DIQMTQSPSSLSASVGDRVTITCRTSENIYSYLAWYQQKPGKAPKLLIYFAKTLTDGVPSRFSGSGSGTDFTLTISSLQPEDFATYYCQHHYGTPWTFGQGTKVEIK
notes: Humanized; also called h39G5VHv6/h71G4VKv1
B10 gave an EC50 [1] of 0.27 nM, an EC50 [2] of 1.16 nM and an IC50 [3] of 1.82 nM. The IC50 [4] was 0.85 nM and the IC50 [5] was 0.35 nM.

B11: Ab27 (antibody, V domains shown)
VH: QVQLVQSGAEVKKPGSSVKVSCKASGYTFTDYWMHWVRQAPGQGLEWMGTIDNSDSDTSLNQKFQGRVTITADTSTSTAYMELSSLRSEDTAVYYCARSLDGYYDYWGQGTLVTVSS
VL: DIQMTQSPSSLSASVGDRVTITCRTSENIYSYLAWYQQKPGKAPKLLIYFAKTLTDGVPSRFSGSGSGTDFTLTISSLQPEDFATYYCQHHYGTPWTFGQGTKVEIK
notes: Humanized; also called h39G5VHv11/h71G4VKv1
B11 showed an EC50 [1] of 1.08 nM and an EC50 [2] of 4.22 nM.

B12: Ab3 (antibody, V domains shown)
VH: EVQLVQSGAEVKKPGESLRISCKASGYSFISYWIHWVRQMPGKGLEWMGIIDPSDSDTSLNQSFQGHVTLSVDKSSTTAYLQWSSLKASDTAMYYCARSLDGYYDYWGQGTLVTVSS
VL: DIQMTQSPSSLSASVGDRVTITCRASENIYSYLAWYQQKPGKAPKLLIYNARTLPEGVPSRFSGSGSGTDFTLTISSLQPEDFATYYCQHHYTTPWTFGQGTKVEIK
notes: Humanized; also called h39G5VHv3/h39G5VKv1
Work on B12 yielded an EC50 [1] of 0.22 nM, an EC50 [2] of 2.22 nM and an IC50 [3] of 1.65 nM. The IC50 [4] was 0.62 nM.

B13: Ab4 (antibody, V domains shown)
VH: EVQLVQSGAEVKKPGESLRISCKASGYSFISYWIHWVRQMPGKGLEWMGIIDPSDSDTSLNQSFQGHVTISADKSISTAYLQWSSLKASDTAMYYCARSLDGYYDYWGQGTLVTVSS
VL: DIQMTQSPSSLSASVGDRVTITCRASENIYSYLAWYQQKPGKAPKLLIYNARTLPEGVPSRFSGSGSGTDFTLTISSLQPEDFATYYCQHHYTTPWTFGQGTKVEIK
notes: Humanized; also called h39G5VHv4/h39G5VKv1
For B13, the EC50 [1] was 0.39 nM, the EC50 [2] was 5.54 nM and the IC50 [3] was 1.69 nM. The IC50 [4] was 0.43 nM.

B14: Ab8 (antibody, V domains shown)
VH: EVQLVQSGAEVKKPGESLKISCKASGYTFTDYWMHWVRQMPGKGLEWMGIIDPSDSDTSLNQSFQGHVTLSVDKSSTTAYLQWSSLKASDTAMYYCARSLDGYYDYWGQGTLVTVSS
VL: DIQMTQSPSSLSASVGDRVTITCRASENIYSYLAWYQQKPGKAPKLLIYNARTLPEGVPSRFSGSGSGTDFTLTISSLQPEDFATYYCQHHYTTPWTFGQGTKVEIK
notes: Humanized; also called h39G5VHv8/h39G5VKv1
With B14 the EC50 [1] was 0.4 nM, the EC50 [2] was 5.51 nM and the IC50 [3] was 2.05 nM. The IC50 [4] was 1 nM.

B15: Ab9 (antibody, V domains shown)
VH: EVQLVQSGAEVKKPGESLKISCKASGYTFTDYWMHWVRQMPGKGLEWMGTIDNSDSDTSLNQSFQGHVTLSVDKSSTTAYLQWSSLKASDTAMYYCARSLDGYYDYWGQGTLVTVSS
VL: DIQMTQSPSSLSASVGDRVTITCRASENIYSYLAWYQQKPGKAPKLLIYNARTLPEGVPSRFSGSGSGTDFTLTISSLQPEDFATYYCQHHYTTPWTFGQGTKVEIK
notes: Humanized; also called h39G5VHv9/h39G5VKv1
B15 was tested, and the EC50 [1] was 3.03 nM and the EC50 [2] was 209 nM.

B16: Ab13 (antibody, V domains shown)
VH: EVQLVQSGAEVKKPGESLKISCKASGYTFTDYWMHWVRQMPGKGLEWMGIIDPSDSDTSLNQSFQGHVTISADKSISTAYLQWSSLKASDTAMYYCARSLDGYYDYWGQGTLVTVSS
VL: DIQMTQSPSSLSASVGDRVTITCRASENIYSYLAWYQQKPGKAPKLLIYNARTLPEGVPSRFSGSGSGTDFTLTISSLQPEDFATYYCQHHYTTPWTFGQGTKVEIK
notes: Humanized; also called h39G5VHv13/h39G5VKv1
Work on B16 yielded an EC50 [1] of 0.66 nM, an EC50 [2] of 5.68 nM and an IC50 [3] of 1.1 nM. It also gave an IC50 [4] of 0.55 nM.

B17: Ab15 (antibody, V domains shown)
VH: EVQLVQSGAEVKKPGESLKISCKASGYTFTDYWMHWVRQMPGKGLEWMGTIDNSDSDTSLNQSFQGHVTISADKSSTTAYLQWSSLKASDTAMYYCARSLDGYYDYWGQGTLVTVSS
VL: DIQMTQSPSSLSASVGDRVTITCRASENIYSYLAWYQQKPGKAPKLLIYNARTLPEGVPSRFSGSGSGTDFTLTISSLQPEDFATYYCQHHYTTPWTFGQGTKVEIK
notes: Humanized; also called h39G5VHv15/h39G5VKv1
For B17, the EC50 [1] was 62.9 nM and the binding result [2] was “no binding”.

B18: Ab16 (antibody, V domains shown)
VH: QVQLVQSGAEVKKPGSSVKVSCKASGYTFTDYWMHWVRQAPGQGLEWMGTIDNSDSDTTYNPSFQGHVTISADKSISTAYLQWSSLKASDTAMYYCARSVDGYLDYWGQGTLVTVSS
VL: DIQMTQSPSSLSASVGDRVTITCRASENIYSYLAWYQQKPGKAPKLLIYNARTLPEGVPSRFSGSGSGTDFTLTISSLQPEDFATYYCQHHYTTPWTFGQGTKVEIK
notes: Humanized; also called h71G4VHv1/h39G5VKv1
B18 gave an EC50 [1] of 5.87 nM and an EC50 [2] of 12.6 nM.
